# Laboratory results published in US20230357348A1 (AstraZeneca / MedImmune, published 2023).
# Starred links: 1 amine or outer side, 2 acyl side, 3 side chain; linkers in the order of their positions; H or OH if unused. Non-standard residues stand in square brackets, D forms with d. Groups on a side chain read outwards from the residue. No end group written: not given here. *: point of attachment. C20 diacid = O=C(O)CCCCCCCCCCCCCCCCCCC(=O)*; C18 diacid = O=C(O)CCCCCCCCCCCCCCCCC(=O)*; γGlu = O=C(O)[C@H](CCC(=O)[*:2])N[*:1]; αMeF = C[C@](N)(Cc1ccccc1)C(=O)O; (PEG)2 = polyethylene glycol 2; PEG4 = NCCOCCOCCOCCOCCC(=O)O; AEEA = NCCOCCOCC(=O)O; Aib = CC(C)(N)C(=O)O
# B1: Peptide 251 (peptide)
# peptide: H[Aib]HGS[αMeF]TSDVSK[αMeF]LDSR[Aib]AK([AEEA-AEEA-γGlu-C18 diacid])DFVESIANT-NH2
# modifications: not fully specified
# B2: Peptide 256 (peptide)
# peptide: H[Aib]HGS[αMeF]TSDVSK[αMeF]LDSQAAK([AEEA-AEEA-γGlu-γGlu-C20 diacid])D[αMeF]VQ[Aib]IANT-NH2
# B3: Peptide 246 (peptide)
# peptide: H[Aib]HGS[αMeF]TSDVSK[αMeF]LDSRAAK([AEEA-AEEA-γGlu-γGlu-C20 diacid])D[αMeF]VESIANT-NH2
# modifications: N-terminus assumed
# SMILES: CC[C@H](C)[C@H](NC(=O)[C@H](CO)NC(=O)[C@H](CCC(=O)O)NC(=O)[C@@H](NC(=O)[C@](C)(Cc1ccccc1)NC(=O)[C@H](CC(=O)O)NC(=O)[C@H](CCCCNC(=O)COCCOCCNC(=O)COCCOCCNC(=O)CC[C@H](NC(=O)CC[C@H](NC(=O)CCCCCCCCCCCCCCCCCCC(=O)O)C(=O)O)C(=O)O)NC(=O)[C@H](C)NC(=O)[C@H](C)NC(=O)[C@H](CCCNC(=N)N)NC(=O)[C@H](CO)NC(=O)[C@H](CC(=O)O)NC(=O)[C@H](CC(C)C)NC(=O)[C@](C)(Cc1ccccc1)NC(=O)[C@H](CCCCN)NC(=O)[C@H](CO)NC(=O)[C@@H](NC(=O)[C@H](CC(=O)O)NC(=O)[C@H](CO)NC(=O)[C@@H](NC(=O)[C@](C)(Cc1ccccc1)NC(=O)[C@H](CO)NC(=O)CNC(=O)[C@H](Cc1c[nH]cn1)NC(=O)C(C)(C)NC(=O)[C@@H](N)Cc1c[nH]cn1)[C@@H](C)O)C(C)C)C(C)C)C(=O)N[C@@H](C)C(=O)N[C@@H](CC(N)=O)C(=O)N[C@H](C(N)=O)[C@@H](C)O
# B4: Peptide 260 (peptide)
# peptide: H[Aib]HGS[αMeF]TSDVSK[αMeF]LDSRAAK([AEEA-γGlu-AEEA-γGlu-C18 diacid])D[αMeF]VQ[Aib]IANT-NH2
# B5: Peptide 261 (peptide)
# peptide: H[Aib]HGS[αMeF]TSDVSK[αMeF]LDSRAAK([PEG4-γGlu-C18 diacid])D[αMeF]VQ[Aib]IANT-NH2
# modifications: N-terminus assumed
# SMILES: CC[C@H](C)[C@H](NC(=O)C(C)(C)NC(=O)[C@H](CCC(N)=O)NC(=O)[C@@H](NC(=O)[C@](C)(Cc1ccccc1)NC(=O)[C@H](CC(=O)O)NC(=O)[C@H](CCCCNC(=O)CCOCCOCCOCCOCCNC(=O)CC[C@H](NC(=O)CCCCCCCCCCCCCCCCC(=O)O)C(=O)O)NC(=O)[C@H](C)NC(=O)[C@H](C)NC(=O)[C@H](CCCNC(=N)N)NC(=O)[C@H](CO)NC(=O)[C@H](CC(=O)O)NC(=O)[C@H](CC(C)C)NC(=O)[C@](C)(Cc1ccccc1)NC(=O)[C@H](CCCCN)NC(=O)[C@H](CO)NC(=O)[C@@H](NC(=O)[C@H](CC(=O)O)NC(=O)[C@H](CO)NC(=O)[C@@H](NC(=O)[C@](C)(Cc1ccccc1)NC(=O)[C@H](CO)NC(=O)CNC(=O)[C@H](Cc1c[nH]cn1)NC(=O)C(C)(C)NC(=O)[C@@H](N)Cc1c[nH]cn1)[C@@H](C)O)C(C)C)C(C)C)C(=O)N[C@@H](C)C(=O)N[C@@H](CC(N)=O)C(=O)N[C@H](C(N)=O)[C@@H](C)O
# B6: Peptide 244 (peptide)
# peptide: H[Aib]HGS[αMeF]TSDVSK[αMeF]LDSRAAK([AEEA-AEEA-γGlu-γGlu-C20 diacid])D[αMeF]VQSIANT-NH2
# modifications: not fully specified
# B7: Peptide 258 (peptide)
# peptide: H[Aib]HGS[αMeF]TSDVSK[αMeF]LDSRAAK([(PEG)2-(PEG)2-γGlu-γGlu-C18 diacid])D[αMeF]VQ[Aib]IANT-NH2
# B8: Peptide 259 (peptide)
# peptide: H[Aib]HGS[αMeF]TSDVSK[αMeF]LDSRAAK([AEEA-γGlu-AEEA-C18 diacid])D[αMeF]VQ[Aib]IANT-NH2
# B9: Peptide 265 (peptide)
# peptide: H[Aib]HGS[αMeF]TSDVSK[αMeF]LDSRAAK([AEEA-γGlu-AEEA-C20 diacid])D[αMeF]VQ[Aib]IANT-NH2
# B10: Peptide 266 (peptide)
# peptide: H[Aib]HGS[αMeF]TSDVSK[αMeF]LDSRAAK([AEEA-γGlu-AEEA-γGlu-C20 diacid])D[αMeF]VQ[Aib]IANT-NH2
# B11: Peptide 264 (peptide)
# peptide: H[Aib]HGS[αMeF]TSDVSK[αMeF]LDSRAAK([(PEG)2-(PEG)2-γGlu-γGlu-C20 diacid])D[αMeF]VQ[Aib]IANT-NH2
# B12: Peptide 252 (peptide)
# peptide: H[Aib]HGS[αMeF]TSDVSK[αMeF]LDSR[Aib]AK([AEEA-AEEA-γGlu-C20 diacid])DFVESIANT-NH2
# B13: Peptide 262 (peptide)
# peptide: H[Aib]HGS[αMeF]TSDVSK[αMeF]LDSRAAK([AEEA-γGlu-C18 diacid])D[αMeF]VQ[Aib]IANT-NH2
# B14: Peptide 253 (peptide)
# peptide: H[Aib]HGS[αMeF]TSDVSK[αMeF]LDSR[Aib]AK([AEEA-γGlu-C18 diacid])DFVESIANT-NH2
# B15: Peptide 250 (peptide)
# peptide: H[Aib]HGS[αMeF]TSDVSK[αMeF]LDSR[Aib]AK([AEEA-AEEA-γGlu-γGlu-C18 diacid])D[αMeF]VESIANT-NH2
# B16: Peptide 263 (peptide)
# peptide: H[Aib]HGS[αMeF]TSDVSK[αMeF]LDSRAAK([PEG4-γGlu-γGlu-C18 diacid])D[αMeF]VQ[Aib]IANT-NH2
# B17: Peptide 254 (peptide)
# peptide: H[Aib]HGS[αMeF]TSDVSK[αMeF]LDSR[Aib]AK([γGlu-C18 diacid])DFVESIANT-NH2
# Columns and labels:
# human glucagon receptor = human glucagon receptor (human, UniProt P47871 26-477); assay: cell-based or functional assay
# Sequence of human glucagon receptor (P47871 26-477): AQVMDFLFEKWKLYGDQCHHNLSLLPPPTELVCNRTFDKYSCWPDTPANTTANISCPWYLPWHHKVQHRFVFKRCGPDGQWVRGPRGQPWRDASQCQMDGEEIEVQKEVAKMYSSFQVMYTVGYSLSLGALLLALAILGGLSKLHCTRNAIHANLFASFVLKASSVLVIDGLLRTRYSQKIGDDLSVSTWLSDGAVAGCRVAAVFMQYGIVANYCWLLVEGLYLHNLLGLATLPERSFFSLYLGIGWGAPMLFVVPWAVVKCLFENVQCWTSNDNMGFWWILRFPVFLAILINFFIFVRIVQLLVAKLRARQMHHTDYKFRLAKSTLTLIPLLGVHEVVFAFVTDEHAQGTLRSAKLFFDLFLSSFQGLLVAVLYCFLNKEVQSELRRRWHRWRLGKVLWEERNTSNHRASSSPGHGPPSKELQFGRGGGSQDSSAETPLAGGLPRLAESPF
# human GLP-1 receptor = human GLP-1 receptor (human, UniProt P43220 24-463); assay: cell-based or functional assay
Binder,"hGluc-R EC50 (pM), cAMP (human glucagon receptor) [pM]","hGLP-1R EC50 (pM), cAMP (human GLP-1 receptor) [pM]"
B1,248,79.8
B2,1310,346
B3,557,320
B4,76.9,33.1
B5,29.4,16.2
B6,420,143
B7,93.1,34
B8,34.8,19.1
B9,131,71.2
B10,293,66.5
B11,297,69.5
B12,1310,119
B13,11.7,13
B14,53.1,75.5
B15,1570,601
B16,64.6,25.4
B17,125,102
